This note sets out measurements from patent publication US9289478B2, “Formulations of tumour-associated peptides binding to human leukocyte antigen (HLA) class I or class II molecules for vaccine” (IMMATICS BIOTECHNOLOGIES GMBH, priority 2008, dated 2016).

Ends that are not written are not given here.

Format in all cases: physicochemical
A short description of series [1]: HPLC-assay for in-use stability after reconstitution with 4.2% sodium hydrogen carbonate solution (Example 2, peptides SEQ ID NO 1-10). How it is done:
Resolubilization procedure: For clinical trials the above described formulation is dissolved in 700 μl sodium hydrogen carbonate (4.2%). Remove plastic cap from one vial. Unpack and remove sodium hydrogen carbonate (4.2%) from the refrigerator at least 30 min before resolubilization to bring them up to room temperature before injection. Prepare syringe and needle for reconstitution. Use aseptic technique to take 700 μL of diluent for reconstitution of the lyophilisate. To dissolve the lyophilisate, the vial and the diluent shall be shaken vigorously for 1 minute, check whether solution is clear, otherwise continue shaking for another minute until the solution is clear. 10 to 30 minutes after GM-CSF injection, use a new syringe to administer 500 μL reconstituted formulation i.d. at the same site. Administration has to occur within 1 h after reconstitution. Dissolved lyophilisate may be stored aseptically at room temperature for up to 1 hour following reconstitution.
However, a decrease of two specific peptides, i.e. IMA-CCN-001 and IMA-RGS-001 took place (see Table 6). As these peptides contain a cysteine residue, time-depending dimerization takes place.
(§1) Identity, purity and peptide content are determined by analytical RP-HPLC chromatography. Detection wavelength was 220 nm.

Series [2] in a line: Stability of renal cell cancer vaccine test formulations at +25° C. and +40° C. by analytical HPLC assay. The conditions noted are these: especially at +40° C. How it is done: Various lyophilisates were tested with respect to stability of each individual peptide at +25° C. and […] using an analytical HPLC assay.
The peptides according to the SEQ ID NOs: 1 to 10 were lyophilised without any excipients and by addition of mannitol and Poloxamer 188 (LUTROL F68®) or TWEEN 80®.
The following test formulations were produced and stability were assessed at +25° C. and +40° C. by analytical HPLC assay:
Initial HPLC measurements have been performed for each formulation before storage in a climate chamber. For this purpose, the content of two vials was completely dissolved in 30% acetic acid and measured by RP-HPLC by repeat determination. To assure comparability between the individual measurements, β-Naphtyl-alanine was used as internal standard and lyophilized together with the peptides.
After 7, 14, 21, and 28 days, another two vials were removed from the climate chamber to assess stability.
Data assessment was performed by repeat determination of one vial. For one time point and temperature, two independent vials were used to obtain four data points in total. These values have been taken to calculate the standard deviation shown as error bars in the relevant diagram.

Series [3] can be described thus: HPLC-assay for in-use stability after reconstitution with 4.2% sodium hydrogen carbonate solution (Example 3, peptides SEQ ID NO 11-23). How it is done:
For clinical trials the above described formulation is dissolved in 700 μl sodium hydrogen carbonate (4.2%). To dissolve the lyophilisate, the vial and the diluent shall be shaken vigorously for 1 minute, check whether solution is clear, otherwise continue shaking for another minute until the solution is clear. Administration of 500 μL of the solution has to occur within 1 h after reconstitution. Dissolved lyophilisate may be stored aseptically at room temperature for up to 1 hour following reconstitution.
as §1

A short description of series [4]: HPLC-assay for stability of peptides in lyophilised formulation on storage for 3 months (Example 4). Conditions: for stability of peptides in formulation, 1 M: 1 month; for stability of peptides in formulation, 2 M: 2 months; for stability of peptides in formulation, 3 M: 3 months. How it is done:
as §1

Series [5] can be described thus: Solubility of peptide in 90% acetic acid and in water. An excerpt: Advantageously, the formulation according to the invention is suitable for stable formulations containing very hydrophobic peptides (for example IMA-CHI-001; SEQ ID NO: 23).

With “LAALPHSCL (listed as Homo sapiens) [RGS-001, RGS-5 tumour-associated peptide]”, the “in-use stability, peptide by HPLC-assay” value in series [1] (+mannitol/lutrol, 1 h after reconstitution) came out at 97.9%; in series [1] (+mannitol/lutrol, 2 h after reconstitution) it was 95.5%; in series [1] (+mannitol/lutrol, 3 h after reconstitution), 94.2%; in series [1] (+mannitol/lutrol, 4 h after reconstitution) it was 91.6%; in series [1] (+mannitol/lutrol, 5 h after reconstitution), 88.0%; in series [1] (+mannitol/lutrol, 6 h after reconstitution), 86.8%. Moreover, the “in-use stability, peptide by HPLC-assay” value in series [1] (+mannitol/lutrol, Initial (starting value set to 100%)) is given as 100.0%; in series [1] (no excipients, 1 h after reconstitution), 90.9%; in series [1] (no excipients, 2 h after reconstitution), 77.8%; in series [1] (no excipients, 3 h after reconstitution) it was 64.6%; in series [1] (no excipients, Initial (starting value set to 100%)), 100.0%. Also, the “stability after reconstitution (in words)” value in series [1] (Example 2 formulation, 4.2% sodium hydrogen carbonate) is recorded as “decrease”. In addition, the “peptide signal in formulations containing TWEEN 80” value in series [2] is “enhanced degradation”.
Consider “NLDTLMTYV (listed as Homo sapiens) [NLGN4X-001, Neuroligin 4, X-linked peptide]”, for which the “in-use stability, Peptide [%]” value amounted to 100.8% in series [3] (+Mannitol/Lutrol, 2h); 100.9% in series [3] (+Mannitol/Lutrol, 4h); 100.5% in series [3] (+Mannitol/Lutrol, 6h); 100.0% in series [3] (+Mannitol/Lutrol, Initial); 99.9% in series [3] (no excipients, 2h); 100.5% in series [3] (no excipients, 4h). In addition, the “in-use stability, Peptide [%]” value in series [3] (no excipients, 6h) was found to be 95.7%; in series [3] (no excipients, Initial) it was 100.0%. In addition, the “stability of peptides in formulation, 1 M” value (shortened to “stability of peptides … 1 M”) was 99.12 % of Initial in series [4] (+5° C. +/- 3° C.), 97.90 % of Initial in series [4] (+25° C. +/- 2° C.) and 99.05 % of Initial in series [4] (-20° C. +/- 5° C.). For the same sequence, the “stability of peptides in formulation, 2 M” value (from here on “stability of peptides … 2 M”) in series [4] (+5° C. +/- 3° C.) is reported as 98.24 % of Initial; in series [4] (+25° C. +/- 2° C.), 96.30 % of Initial; in series [4] (-20° C. +/- 5° C.), 97.60 % of Initial. Moreover, the “stability of peptides in formulation, 3 M” value (“stability of peptides … 3 M” for short) in series [4] (+5° C. +/- 3° C.) is listed as 98.84 % of Initial; in series [4] (+25° C. +/- 2° C.), 96.41 % of Initial; in series [4] (-20° C. +/- 5° C.), 98.62 % of Initial. Also, the “stability of peptides in formulation, INITIAL” value (“stability of peptides … INITIAL” for short) in series [4] (+5° C. +/- 3° C.), in series [4] (+25° C. +/- 2° C.) and in series [4] (-20° C. +/- 5° C.) was 100.0% in each case.
As usually defined, the solubility is the concentration that dissolves in the medium under given conditions. As for SLWAGVVVL [CHI-001], the solubility in series [5] (90% acetic acid) was approximately 2900 µg/mL. The solubility in water result in series [5] (water) is given as “very insoluble”. Moreover, the “in-use stability, Peptide [%]” value is listed as 100.0% in series [3] (+Mannitol/Lutrol, 2h); 100.2% in series [3] (+Mannitol/Lutrol, 6h); 100.0% in series [3] (+Mannitol/Lutrol, Initial); 102.2% in series [3] (no excipients, 2h); 90.6% in series [3] (no excipients, 6h); 100.0% in series [3] (no excipients, Initial).
“TFSYVDPVITSISPKYG (listed as Homo sapiens) [MET-005, Met proto-oncogene peptide]”: the “in-use stability, Peptide [%]” value in series [3] (+Mannitol/Lutrol, 2h) turned out to be 100.5%; in series [3] (+Mannitol/Lutrol, 4h), 100.7%; in series [3] (+Mannitol/Lutrol, 6h), 100.4%; in series [3] (+Mannitol/Lutrol, Initial) it was 100.0%; in series [3] (no excipients, 2h), 100.3%; in series [3] (no excipients, 4h), 100.7%. Further, the “in-use stability, Peptide [%]” value in series [3] (no excipients, 6h) was 96.0%; in series [3] (no excipients, Initial), 100.0%. Besides, the entries for the “stability of peptides … 1 M” value in series [4] (+5° C. +/- 3° C.), in series [4] (+25° C. +/- 2° C.) and in series [4] (-20° C. +/- 5° C.) were 99.06 % of Initial, 97.49 % of Initial and 99.14 % of Initial, respectively. For the same sequence, the entries for the “stability of peptides … 2 M” value in series [4] (+5° C. +/- 3° C.), in series [4] (+25° C. +/- 2° C.) and in series [4] (-20° C. +/- 5° C.) were 97.92 % of Initial, 96.13 % of Initial and 97.54 % of Initial, respectively. Further, the “stability of peptides … 3 M” value is on record as 98.59 % of Initial in series [4] (+5° C. +/- 3° C.), 97.21 % of Initial in series [4] (+25° C. +/- 2° C.) and 99.00 % of Initial in series [4] (-20° C. +/- 5° C.). The “stability of peptides … INITIAL” value in series [4] (+5° C. +/- 3° C.), in series [4] (+25° C. +/- 2° C.) and in series [4] (-20° C. +/- 5° C.) was 100.0% each time.
As to “TLGEFLKLDRERAKN (listed as Homo sapiens) [BIR-002, Baculoviral IAP repeat-containing 5 (survivin) peptide]”, the “in-use stability, Peptide [%]” value in series [3] (+Mannitol/Lutrol, 2h) is 100.8%; in series [3] (+Mannitol/Lutrol, 4h), 101.2%; in series [3] (+Mannitol/Lutrol, 6h), 100.9%; in series [3] (+Mannitol/Lutrol, Initial), 100.0%; in series [3] (no excipients, 2h), 100.6%; in series [3] (no excipients, 4h), 101.4%. For the same sequence, the “in-use stability, Peptide [%]” value in series [3] (no excipients, 6h) turned out to be 96.2%; in series [3] (no excipients, Initial), 100.0%. In addition, the “stability of peptides … 1 M” value in series [4] (+5° C. +/- 3° C.) was 98.53 % of Initial; in series [4] (+25° C. +/- 2° C.), 97.49 % of Initial; in series [4] (-20° C. +/- 5° C.), 98.43 % of Initial. Moreover, the “stability of peptides … 2 M” value in series [4] (+5° C. +/- 3° C.) is 97.28 % of Initial; in series [4] (+25° C. +/- 2° C.), 96.24 % of Initial; in series [4] (-20° C. +/- 5° C.), 96.98 % of Initial. The “stability of peptides … 3 M” value in series [4] (+5° C. +/- 3° C.) was 100.01 % of Initial; in series [4] (+25° C. +/- 2° C.), 98.93 % of Initial; in series [4] (-20° C. +/- 5° C.) it was 100.14 % of Initial. In addition, the “stability of peptides … INITIAL” value in series [4] (+5° C. +/- 3° C.), in series [4] (+25° C. +/- 2° C.) and in series [4] (-20° C. +/- 5° C.) was 100.0% throughout.
Turning to “TMLARLASA (listed as Homo sapiens) [CSP-001, Chondroitin sulfate proteoglycan 4 peptide]”, the “in-use stability, Peptide [%]” value is 100.0% in series [3] (+Mannitol/Lutrol, 2h); 100.1% in series [3] (+Mannitol/Lutrol, 4h); 99.6% in series [3] (+Mannitol/Lutrol, 6h); 100.0% in series [3] (+Mannitol/Lutrol, Initial); 99.2% in series [3] (no excipients, 2h); 99.7% in series [3] (no excipients, 4h). The “in-use stability, Peptide [%]” value in series [3] (no excipients, 6h) amounted to 95.0%; in series [3] (no excipients, Initial) it was 100.0%. In addition, the “stability of peptides … 1 M” value in series [4] (+5° C. +/- 3° C.) is listed as 98.99 % of Initial; in series [4] (+25° C. +/- 2° C.), 98.04 % of Initial; in series [4] (-20° C. +/- 5° C.), 98.99 % of Initial. The “stability of peptides … 2 M” value in series [4] (+5° C. +/- 3° C.) is recorded as 98.05 % of Initial; in series [4] (+25° C. +/- 2° C.), 96.99 % of Initial; in series [4] (-20° C. +/- 5° C.), 97.61 % of Initial. Moreover, the “stability of peptides … 3 M” value in series [4] (+5° C. +/- 3° C.) is recorded as 99.81 % of Initial; in series [4] (+25° C. +/- 2° C.) it was 98.71 % of Initial; in series [4] (-20° C. +/- 5° C.), 99.61 % of Initial. In addition, the “stability of peptides … INITIAL” value in series [4] (+5° C. +/- 3° C.), in series [4] (+25° C. +/- 2° C.) and in series [4] (-20° C. +/- 5° C.) was 100.0% in each case.
